Experimental data published in patent US11857609B2, “Ocular delivery of cell permeant therapeutics for the treatment of retinal edema” (The Trustees of Columbia University in the City of New York, dated 2024).

Tests used:
[1] = molecular target: T1, activated (cleaved) caspase-9 from mouse retina (mouse, UniProt Q8C3Q9); test: co-immunoprecipitation from mouse retina lysates after RVO and Pen1-XBIR3: anti-His IP, western blot for clCasp9, 24 h
Source text: (§1) To show target engagement, after RVO, mice were given Penl-XBIR3 and retinas were harvested and immunoprecipitated with anti-His followed by western blot for clCasp9 (FIG. 5, right panel).

[2] = molecular target: T1, activated (cleaved) caspase-9 from …; test: co-immunoprecipitation from mouse retina lysates after RVO and Pen1-XBIR3: anti-His IP, western blot for clCasp9, 4 h
Source text: as §1

B1: Penetratin1-XBIR3 conjugate (other)
chain 1: CRQIKIWFQNRRMKWKK
chain 2: MGSSHHHHHHSSGLVPRGSHMSTNTCLPRNPSMADYEARIFTFGTWIYSVNKEQLARAGFYTDWALGEGDKVKCFHCGGGLRPSEDPWEQHARWYPGCRYLLEQRGQEYINNIHLTHS
modifications: N-terminal C(NPys) as printed; linked to XBIR3 by a disulfide bond (-s-s-); linked to Penetratin1 by a disulfide bond
fold increase in binding [1]: 45 fold | fold increase in binding [2]: 21 fold
